In this assay the target is West Nile virus strain USA99b (strain 385-99), whole virus (West Nile virus strain 385-99 (USA99b)). Kind of assay: ELISA on irradiated WNV; antibody at 20.000 µg/ml. Background: ELISA stands for enzyme-linked immunosorbent assay.

Regarding “anti-rabies virus antibody (negative control)”, the OD 492nm turned out to be 0.051 OD 492nm.

The values are drawn from patent EP1828247B1.
